US20160200782A1

Key:
Test in all cases: cell-based or functional assay
ALK(h) (human) = ALK(h) (human) (UniProt Q9UM73)
AMPKa2(h) (human) = AMPKa2(h) (human) (UniProt P54646)
ASK1(h) (human) = ASK1(h) (human) (UniProt Q99683)
Ab1(T315I)(h) (human) = Ab1(T315I)(h) (human) (UniProt P00519)
Ab1(Y253F)(h) (human) = Ab1(Y253F)(h) (human) (UniProt P00519)
Aurora-A(h) (human) = Aurora-A(h) (human) (UniProt O14965)
CDK1/cyclinB(h) (human) = CDK1/cyclinB(h) (human) (UniProt P06493)
CDK6/cyclinD3(h) (human) = CDK6/cyclinD3(h) (human) (UniProt Q00534)
CHK2(I157T)(h) (human) = CHK2(I157T)(h) (human) (UniProt O96017)
CHK2(R145W)(h) (human) = CHK2(R145W)(h) (human) (UniProt O96017)
CK1δ(h) (human) = CK1δ(h) (human) (UniProt P48730)
DDR2(h) (human) = DDR2(h) (human) (UniProt Q16832)
EGFR(T790M)(h) (human) = EGFR(T790M)(h) (human) (UniProt P00533)
[1] = biological target: EGFR(T790M,L858R)(h) (human) (UniProt P00533)
EphB4(h) (human) = EphB4(h) (human) (UniProt P54760)
FGFR4(h) (human) = FGFR4(h) (human) (UniProt P22455)
Fyn(h) (human) = Fyn(h) (human) (UniProt P06241)
GSK3α(h) (human) = GSK3α(h) (human) (UniProt P49840)
IRR(h) (human) = IRR(h) (human) (UniProt P14616)
JAK2(h) (human) = JAK2(h) (human) (UniProt O60674)
Lck(h) activated (human) = Lck(h) activated (human) (UniProt P06239)
MAPKAP-K2(h) (human) = MAPKAP-K2(h) (human) (UniProt P49137)
MEK1(h) (human) = MEK1(h) (human) (UniProt Q02750)
MRCKα(h) (human) = MRCKα(h) (human) (UniProt Q5VT25)
MSK1(h) (human) = MSK1(h) (human) (UniProt O75582)
Met(D1246H)(h) (human) = Met(D1246H)(h) (human) (UniProt P08581)
Met(M1268T)(h) (human) = Met(M1268T)(h) (human) (UniProt P08581)
NEK6(h) (human) = NEK6(h) (human) (UniProt Q9HC98)
PAK2(h) (human) = PAK2(h) (human) (UniProt Q13177)
PAK4(h) (human) = PAK4(h) (human) (UniProt O96013)
PDGFRβ(h) (human) = PDGFRβ(h) (human) (UniProt P09619)
PKA(h) (human) = biological target: PKA(h) (human)
PKBγ(h) (human) = PKBγ(h) (human) (UniProt Q9Y243)
PKCα(h) (human) = PKCα(h) (human) (UniProt P17252)
PKCβI(h) (human) = PKCβI(h) (human) (UniProt P05771)
PKCγ(h) (human) = PKCγ(h) (human) (UniProt P05129)
PKCθ(h) (human) = PKCθ(h) (human) (UniProt Q04759)
PKG1α(h) (human) = PKG1α(h) (human) (UniProt Q13976)
PRK2(h) (human) = PRK2(h) (human) (UniProt Q16513)
PTK5(h) (human) = PTK5(h) (human) (UniProt P42685)
Pyk2(h) (human) = Pyk2(h) (human) (UniProt Q14289)
ROCK-I(h) (human) = ROCK-I(h) (human) (UniProt Q13464)
Ret(V804L)(h) (human) = Ret(V804L)(h) (human) (UniProt P07949)
Rsk2(h) (human) = Rsk2(h) (human) (UniProt P51812)
Rsk3(h) (human) = Rsk3(h) (human) (UniProt Q15349)
SAPK2a(h) (human) = SAPK2a(h) (human) (UniProt Q16539)
SAPK2b(h) (human) = SAPK2b(h) (human) (UniProt Q15759)
SRPK1(h) (human) = SRPK1(h) (human) (UniProt Q96SB4)
TAO3(h) (human) = TAO3(h) (human) (UniProt Q9H2K8)
Tec(h)activated (human) = Tec(h)activated (human) (UniProt P42680)
Tie2(Y897S)(h) (human) = Tie2(Y897S)(h) (human) (UniProt Q02763)
TrkB(h) (human) = TrkB(h) (human) (UniProt Q16620)
Txk(h) (human) = Txk(h) (human) (UniProt P42681)
cKit(D816V)(h) (human) = cKit(D816V)(h) (human) (UniProt P10721)
cKit(V560G)(h) (human) = cKit(V560G)(h) (human) (UniProt P10721)
mTOR(h) (human) = mTOR(h) (human) (UniProt P42345)

Sequence of IRR(h) (human) (P14616 960-1297 limits assumed): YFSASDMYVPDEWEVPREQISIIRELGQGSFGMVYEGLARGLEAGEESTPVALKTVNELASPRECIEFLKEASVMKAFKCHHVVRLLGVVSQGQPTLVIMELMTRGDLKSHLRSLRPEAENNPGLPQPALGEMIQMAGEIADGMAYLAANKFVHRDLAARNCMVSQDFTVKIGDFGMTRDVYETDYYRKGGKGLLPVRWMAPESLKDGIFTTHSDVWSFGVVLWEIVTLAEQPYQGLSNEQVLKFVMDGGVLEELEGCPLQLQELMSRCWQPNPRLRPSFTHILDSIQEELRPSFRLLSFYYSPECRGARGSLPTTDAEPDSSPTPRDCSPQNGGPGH
Sequence of CHK2(I157T)(h) (human) (O96017 5-543 I157T limits assumed): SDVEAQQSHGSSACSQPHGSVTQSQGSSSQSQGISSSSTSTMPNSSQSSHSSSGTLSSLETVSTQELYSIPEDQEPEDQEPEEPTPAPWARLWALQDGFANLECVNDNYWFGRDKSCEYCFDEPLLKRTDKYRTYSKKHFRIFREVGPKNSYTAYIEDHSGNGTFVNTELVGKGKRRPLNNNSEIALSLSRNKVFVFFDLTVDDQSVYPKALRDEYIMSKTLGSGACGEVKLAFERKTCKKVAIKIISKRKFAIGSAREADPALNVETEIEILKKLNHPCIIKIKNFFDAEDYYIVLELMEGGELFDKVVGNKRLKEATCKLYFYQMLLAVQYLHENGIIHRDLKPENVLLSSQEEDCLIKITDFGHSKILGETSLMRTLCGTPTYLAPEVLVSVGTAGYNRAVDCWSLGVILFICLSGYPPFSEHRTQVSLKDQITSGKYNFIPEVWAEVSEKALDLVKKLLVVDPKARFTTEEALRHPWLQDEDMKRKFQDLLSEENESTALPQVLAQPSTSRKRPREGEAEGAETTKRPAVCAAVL
Sequence of PKCβI(h) (human) (P05771 whole entry): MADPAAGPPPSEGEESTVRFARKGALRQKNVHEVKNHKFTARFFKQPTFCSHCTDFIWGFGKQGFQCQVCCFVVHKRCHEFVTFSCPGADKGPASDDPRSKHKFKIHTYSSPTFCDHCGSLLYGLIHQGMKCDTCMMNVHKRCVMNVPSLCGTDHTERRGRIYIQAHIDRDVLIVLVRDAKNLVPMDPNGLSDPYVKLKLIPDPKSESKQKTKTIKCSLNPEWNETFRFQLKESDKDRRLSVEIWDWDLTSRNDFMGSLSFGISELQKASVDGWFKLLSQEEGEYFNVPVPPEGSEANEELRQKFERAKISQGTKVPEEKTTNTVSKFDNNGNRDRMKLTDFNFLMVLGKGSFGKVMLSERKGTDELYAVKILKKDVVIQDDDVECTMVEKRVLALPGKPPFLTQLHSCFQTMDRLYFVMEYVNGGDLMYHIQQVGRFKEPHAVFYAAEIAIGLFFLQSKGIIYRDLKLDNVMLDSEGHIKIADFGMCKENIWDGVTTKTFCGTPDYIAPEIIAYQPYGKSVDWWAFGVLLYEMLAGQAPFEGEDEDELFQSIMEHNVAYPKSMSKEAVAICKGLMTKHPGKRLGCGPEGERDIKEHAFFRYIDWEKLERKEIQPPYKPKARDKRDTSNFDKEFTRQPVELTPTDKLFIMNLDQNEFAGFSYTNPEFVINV
Sequence of PAK4(h) (human) (O96013 whole entry): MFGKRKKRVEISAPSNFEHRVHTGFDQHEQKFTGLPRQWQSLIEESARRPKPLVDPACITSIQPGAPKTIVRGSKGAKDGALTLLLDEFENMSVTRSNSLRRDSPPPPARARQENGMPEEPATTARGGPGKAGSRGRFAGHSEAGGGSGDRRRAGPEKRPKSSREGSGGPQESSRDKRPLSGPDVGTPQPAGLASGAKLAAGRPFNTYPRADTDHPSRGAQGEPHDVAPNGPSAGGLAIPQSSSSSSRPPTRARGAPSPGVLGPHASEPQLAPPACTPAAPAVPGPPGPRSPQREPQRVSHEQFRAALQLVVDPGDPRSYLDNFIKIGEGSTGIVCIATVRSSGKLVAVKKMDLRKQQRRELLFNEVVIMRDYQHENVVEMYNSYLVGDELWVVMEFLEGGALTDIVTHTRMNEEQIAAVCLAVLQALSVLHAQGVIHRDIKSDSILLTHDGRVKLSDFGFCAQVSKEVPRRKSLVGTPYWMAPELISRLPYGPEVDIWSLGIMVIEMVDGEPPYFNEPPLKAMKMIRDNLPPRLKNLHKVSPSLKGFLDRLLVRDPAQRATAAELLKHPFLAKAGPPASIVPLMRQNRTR
Sequence of Tie2(Y897S)(h) (human) (Q02763 771-1124 Y897S limits assumed): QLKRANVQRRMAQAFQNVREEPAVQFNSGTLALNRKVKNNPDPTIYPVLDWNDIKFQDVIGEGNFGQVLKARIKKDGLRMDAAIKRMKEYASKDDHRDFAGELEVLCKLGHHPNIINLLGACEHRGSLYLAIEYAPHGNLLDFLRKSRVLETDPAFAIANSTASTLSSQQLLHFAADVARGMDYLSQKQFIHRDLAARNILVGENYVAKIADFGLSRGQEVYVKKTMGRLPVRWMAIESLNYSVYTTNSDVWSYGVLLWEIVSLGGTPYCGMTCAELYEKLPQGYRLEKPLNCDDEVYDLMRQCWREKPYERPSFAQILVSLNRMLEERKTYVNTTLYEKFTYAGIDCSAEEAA
Sequence of NEK6(h) (human) (Q9HC98 whole entry): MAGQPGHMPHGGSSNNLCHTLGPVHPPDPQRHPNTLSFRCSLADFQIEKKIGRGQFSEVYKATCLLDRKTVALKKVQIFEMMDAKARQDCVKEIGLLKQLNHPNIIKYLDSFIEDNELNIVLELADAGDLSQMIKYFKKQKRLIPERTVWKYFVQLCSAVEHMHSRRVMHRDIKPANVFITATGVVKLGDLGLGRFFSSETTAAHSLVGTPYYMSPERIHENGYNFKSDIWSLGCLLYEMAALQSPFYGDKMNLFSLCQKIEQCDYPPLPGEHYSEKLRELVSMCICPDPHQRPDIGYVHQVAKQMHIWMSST
Sequence of Ab1(Y253F)(h) (human) (P00519 27-1130 Y253F limits assumed): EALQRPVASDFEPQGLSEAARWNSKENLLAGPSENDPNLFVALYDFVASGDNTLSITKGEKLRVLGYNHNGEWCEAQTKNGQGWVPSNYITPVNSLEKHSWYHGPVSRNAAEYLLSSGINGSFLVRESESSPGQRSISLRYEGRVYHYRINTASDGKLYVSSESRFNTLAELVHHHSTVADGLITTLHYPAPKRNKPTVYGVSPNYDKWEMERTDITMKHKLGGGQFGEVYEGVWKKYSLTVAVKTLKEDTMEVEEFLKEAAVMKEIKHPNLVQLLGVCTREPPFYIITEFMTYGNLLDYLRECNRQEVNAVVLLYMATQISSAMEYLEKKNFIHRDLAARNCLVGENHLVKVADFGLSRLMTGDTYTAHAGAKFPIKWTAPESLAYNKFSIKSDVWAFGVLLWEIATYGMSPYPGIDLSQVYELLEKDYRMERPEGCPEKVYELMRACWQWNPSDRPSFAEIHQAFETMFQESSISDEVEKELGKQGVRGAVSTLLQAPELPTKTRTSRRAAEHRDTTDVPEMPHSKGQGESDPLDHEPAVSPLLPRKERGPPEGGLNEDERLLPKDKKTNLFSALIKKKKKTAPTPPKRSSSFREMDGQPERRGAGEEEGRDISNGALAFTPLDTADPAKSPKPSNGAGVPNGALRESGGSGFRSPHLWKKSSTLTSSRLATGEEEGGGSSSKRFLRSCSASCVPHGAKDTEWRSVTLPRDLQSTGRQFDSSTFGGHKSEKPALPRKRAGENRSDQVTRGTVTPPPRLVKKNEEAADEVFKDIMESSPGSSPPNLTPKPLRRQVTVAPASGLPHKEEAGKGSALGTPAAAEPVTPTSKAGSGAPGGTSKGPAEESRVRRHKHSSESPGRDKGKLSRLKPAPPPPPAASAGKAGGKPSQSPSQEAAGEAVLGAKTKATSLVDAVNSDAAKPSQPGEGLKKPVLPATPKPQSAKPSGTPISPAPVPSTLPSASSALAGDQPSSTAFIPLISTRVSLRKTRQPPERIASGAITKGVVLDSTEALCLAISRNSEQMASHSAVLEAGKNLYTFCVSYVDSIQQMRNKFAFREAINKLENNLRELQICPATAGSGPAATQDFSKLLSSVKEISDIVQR
Sequence of Tec(h)activated (human) (P42680 whole entry): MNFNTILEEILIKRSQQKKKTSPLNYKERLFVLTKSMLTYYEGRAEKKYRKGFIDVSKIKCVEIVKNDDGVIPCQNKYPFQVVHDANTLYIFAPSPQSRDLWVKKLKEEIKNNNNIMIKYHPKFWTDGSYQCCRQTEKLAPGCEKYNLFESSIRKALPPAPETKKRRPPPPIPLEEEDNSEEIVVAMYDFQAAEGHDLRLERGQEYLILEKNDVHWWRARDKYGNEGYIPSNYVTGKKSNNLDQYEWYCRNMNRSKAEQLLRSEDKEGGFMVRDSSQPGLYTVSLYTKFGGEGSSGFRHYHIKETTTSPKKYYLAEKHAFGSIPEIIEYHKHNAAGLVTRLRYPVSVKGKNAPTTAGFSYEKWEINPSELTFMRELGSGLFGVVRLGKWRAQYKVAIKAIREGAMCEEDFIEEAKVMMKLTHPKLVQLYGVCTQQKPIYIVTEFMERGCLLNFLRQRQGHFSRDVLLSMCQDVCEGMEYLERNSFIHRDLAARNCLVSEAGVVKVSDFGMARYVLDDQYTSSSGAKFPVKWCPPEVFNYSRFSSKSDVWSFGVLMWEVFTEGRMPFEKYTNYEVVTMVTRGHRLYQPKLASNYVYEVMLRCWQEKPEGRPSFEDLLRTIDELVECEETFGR
Sequence of PRK2(h) (human) (Q16513 501-984 limits assumed): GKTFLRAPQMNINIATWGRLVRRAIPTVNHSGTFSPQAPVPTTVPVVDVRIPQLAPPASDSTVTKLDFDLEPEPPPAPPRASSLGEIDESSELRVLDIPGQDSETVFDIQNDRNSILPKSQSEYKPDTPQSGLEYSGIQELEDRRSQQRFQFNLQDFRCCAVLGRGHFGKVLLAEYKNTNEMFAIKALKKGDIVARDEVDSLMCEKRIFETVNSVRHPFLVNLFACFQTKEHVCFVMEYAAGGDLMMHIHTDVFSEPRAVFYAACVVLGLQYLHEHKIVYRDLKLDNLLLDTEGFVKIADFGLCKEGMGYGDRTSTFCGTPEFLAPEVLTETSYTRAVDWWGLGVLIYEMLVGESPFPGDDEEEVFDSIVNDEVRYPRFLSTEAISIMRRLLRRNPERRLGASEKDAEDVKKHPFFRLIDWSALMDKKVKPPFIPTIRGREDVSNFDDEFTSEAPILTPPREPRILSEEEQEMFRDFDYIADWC

Substance: MMI-0500 (peptide)
- % activity (ALK(h) (human)): 12%
- % activity (AMPKa2(h) (human)): 9%
- % activity (ASK1(h) (human)): -4%
- % activity (Ab1(T315I)(h) (human)): 16%
- % activity (Ab1(Y253F)(h) (human)): 29%
- % activity (Aurora-A(h) (human)): 110%
- % activity (CDK1/cyclinB(h) (human)): 57%
- % activity (CDK6/cyclinD3(h) (human)): 23%
- % activity (CHK2(I157T)(h) (human)): 3%
- % activity (CHK2(R145W)(h) (human)): 3%
- % activity (CK1δ(h) (human)): 78%
- % activity (DDR2(h) (human)): 79%
- % activity (EGFR(T790M)(h) (human)): 70%
- % activity [1]: 53%
- % activity (EphB4(h) (human)): 38%
- % activity (FGFR4(h) (human)): 3%
- % activity (Fyn(h) (human)): 83%
- % activity (GSK3α(h) (human)): 175%
- % activity (IRR(h) (human)): 10%
- % activity (JAK2(h) (human)): 49%
- % activity (Lck(h) activated (human)): 76%
- % activity (MAPKAP-K2(h) (human)): 9%
- % activity (MEK1(h) (human)): 21%
- % activity (MRCKα(h) (human)): 5%
- % activity (MSK1(h) (human)): 8%
- % activity (Met(D1246H)(h) (human)): 150%
- % activity (Met(M1268T)(h) (human)): 239%
- % activity (NEK6(h) (human)): 49%
- % activity (PAK2(h) (human)): 44%
- % activity (PAK4(h) (human)): 86%
- % activity (PDGFRβ(h) (human)): 40%
- % activity (PKA(h) (human)): 118%
- % activity (PKBγ(h) (human)): 20%
- % activity (PKCα(h) (human)): 3%
- % activity (PKCβI(h) (human)): 1%
- % activity (PKCγ(h) (human)): 6%
- % activity (PKCθ(h) (human)): 62%
- % activity (PKG1α(h) (human)): 25%
- % activity (PRK2(h) (human)): 7%
- % activity (PTK5(h) (human)): 96%
- % activity (Pyk2(h) (human)): 46%
- % activity (ROCK-I(h) (human)): 17%
- % activity (Ret(V804L)(h) (human)): 20%
- % activity (Rsk2(h) (human)): 14%
- % activity (Rsk3(h) (human)): 23%
- % activity (SAPK2a(h) (human)): 52%
- % activity (SAPK2b(h) (human)): 42%
- % activity (SRPK1(h) (human)): 80%
- % activity (TAO3(h) (human)): 12%
- % activity (Tec(h)activated (human)): 33%
- % activity (Tie2(Y897S)(h) (human)): 80%
- % activity (TrkB(h) (human)): 12%
- % activity (Txk(h) (human)): 10%
- % activity (cKit(D816V)(h) (human)): 30%
- % activity (cKit(V560G)(h) (human)): 198%
- % activity (mTOR(h) (human)): 135%

Substance: MMI-0200 (peptide)
- % activity (ALK(h) (human)): 95%
- % activity (AMPKa2(h) (human)): 88%
- % activity (ASK1(h) (human)): 101%
- % activity (Ab1(T315I)(h) (human)): 108%
- % activity (Ab1(Y253F)(h) (human)): 102%
- % activity (Aurora-A(h) (human)): 107%
- % activity (CDK1/cyclinB(h) (human)): 115%
- % activity (CDK6/cyclinD3(h) (human)): 100%
- % activity (CHK2(I157T)(h) (human)): 85%
- % activity (CHK2(R145W)(h) (human)): 81%
- % activity (CK1δ(h) (human)): 92%
- % activity (DDR2(h) (human)): 104%
- % activity (EGFR(T790M)(h) (human)): 113%
- % activity [1]: 108%
- % activity (EphB4(h) (human)): 131%
- % activity (FGFR4(h) (human)): 75%
- % activity (Fyn(h) (human)): 75%
- % activity (GSK3α(h) (human)): 119%
- % activity (IRR(h) (human)): 69%
- % activity (JAK2(h) (human)): 131%
- % activity (Lck(h) activated (human)): 90%
- % activity (MAPKAP-K2(h) (human)): 35%
- % activity (MEK1(h) (human)): 116%
- % activity (MRCKα(h) (human)): 103%
- % activity (MSK1(h) (human)): 50%
- % activity (Met(D1246H)(h) (human)): 139%
- % activity (Met(M1268T)(h) (human)): 143%
- % activity (NEK6(h) (human)): 98%
- % activity (PAK2(h) (human)): 69%
- % activity (PAK4(h) (human)): 98%
- % activity (PDGFRβ(h) (human)): 137%
- % activity (PKA(h) (human)): 110%
- % activity (PKBγ(h) (human)): 103%
- % activity (PKCα(h) (human)): 100%
- % activity (PKCβI(h) (human)): 98%
- % activity (PKCγ(h) (human)): 101%
- % activity (PKCθ(h) (human)): 101%
- % activity (PKG1α(h) (human)): 70%
- % activity (PRK2(h) (human)): 74%
- % activity (PTK5(h) (human)): 108%
- % activity (Pyk2(h) (human)): 127%
- % activity (ROCK-I(h) (human)): 117%
- % activity (Ret(V804L)(h) (human)): 100%
- % activity (Rsk2(h) (human)): 101%
- % activity (Rsk3(h) (human)): 109%
- % activity (SAPK2a(h) (human)): 107%
- % activity (SAPK2b(h) (human)): 95%
- % activity (SRPK1(h) (human)): 93%
- % activity (TAO3(h) (human)): 102%
- % activity (Tec(h)activated (human)): 77%
- % activity (Tie2(Y897S)(h) (human)): 85%
- % activity (TrkB(h) (human)): 7%
- % activity (Txk(h) (human)): 98%
- % activity (cKit(D816V)(h) (human)): 118%
- % activity (cKit(V560G)(h) (human)): 115%
- % activity (mTOR(h) (human)): 110%

Substance: MMI-0100 (peptide)
- % activity (ALK(h) (human)): 118%
- % activity (AMPKa2(h) (human)): 121%
- % activity (ASK1(h) (human)): 100%
- % activity (Ab1(T315I)(h) (human)): 98%
- % activity (Ab1(Y253F)(h) (human)): 104%
- % activity (Aurora-A(h) (human)): 120%
- % activity (CDK1/cyclinB(h) (human)): 96%
- % activity (CDK6/cyclinD3(h) (human)): 103%
- % activity (CHK2(I157T)(h) (human)): 97%
- % activity (CHK2(R145W)(h) (human)): 97%
- % activity (CK1δ(h) (human)): 115%
- % activity (DDR2(h) (human)): 105%
- % activity (EGFR(T790M)(h) (human)): 106%
- % activity [1]: 93%
- % activity (EphB4(h) (human)): 62%
- % activity (FGFR4(h) (human)): 67%
- % activity (Fyn(h) (human)): 71%
- % activity (GSK3α(h) (human)): 183%
- % activity (IRR(h) (human)): 85%
- % activity (JAK2(h) (human)): 89%
- % activity (Lck(h) activated (human)): 106%
- % activity (MAPKAP-K2(h) (human)): 19%
- % activity (MEK1(h) (human)): 86%
- % activity (MRCKα(h) (human)): 98%
- % activity (MSK1(h) (human)): 52%
- % activity (Met(D1246H)(h) (human)): 99%
- % activity (Met(M1268T)(h) (human)): 114%
- % activity (NEK6(h) (human)): 109%
- % activity (PAK2(h) (human)): 71%
- % activity (PAK4(h) (human)): 92%
- % activity (PDGFRβ(h) (human)): 116%
- % activity (PKA(h) (human)): 138%
- % activity (PKBγ(h) (human)): 105%
- % activity (PKCα(h) (human)): 94%
- % activity (PKCβI(h) (human)): 88%
- % activity (PKCγ(h) (human)): 94%
- % activity (PKCθ(h) (human)): 102%
- % activity (PKG1α(h) (human)): 82%
- % activity (PRK2(h) (human)): 72%
- % activity (PTK5(h) (human)): 135%
- % activity (Pyk2(h) (human)): 113%
- % activity (ROCK-I(h) (human)): 99%
- % activity (Ret(V804L)(h) (human)): 113%
- % activity (Rsk2(h) (human)): 65%
- % activity (Rsk3(h) (human)): 76%
- % activity (SAPK2a(h) (human)): 110%
- % activity (SAPK2b(h) (human)): 99%
- % activity (SRPK1(h) (human)): 69%
- % activity (TAO3(h) (human)): 45%
- % activity (Tec(h)activated (human)): 100%
- % activity (Tie2(Y897S)(h) (human)): 99%
- % activity (TrkB(h) (human)): 4%
- % activity (Txk(h) (human)): 87%
- % activity (cKit(D816V)(h) (human)): 117%
- % activity (cKit(V560G)(h) (human)): 94%
- % activity (mTOR(h) (human)): 102%
